Columns and labels:
[1] = molecular target: atToc132 G-domain bait (Arabidopsis thaliana) (UniProt Q9SLF3); experiment: two-hybrid; pairwise split-ubiquitin yeast two-hybrid of isolated NubG-preys with Toc159G, Toc132G or Toc132AG bait in NMY51; growth on SD-LWHA (3-AT) and quantitative β-Gal assay, activity relative to a reference bait set to 100%
[2] = molecular target: atToc132 A- plus G-domains bait (Arabidopsis thaliana) (UniProt Q9SLF3); experiment: as above
[3] = molecular target: atToc159 G-domain bait (Arabidopsis thaliana) (UniProt O81283); experiment: as above
[4] = molecular target: T1, FNR1(TP)-DHFRHis (Arabidopsis thaliana | not stated); experiment: pull-down; solid phase binding assay: His-tagged TP-DHFR or DHFR immobilised on Ni-NTA resin (up to 800 pmol), incubated with 35S-labelled in vitro translated receptor, 25°C, 30 min, 50 mM Hepes-KOH pH 7.5, 5 mM MgCl2, 40 mM KOAc, 0.1% Triton X-100, 40 mM imidazole, 0.1 mM GTP; phosphorimager
T1 sequence (Q9FKW6 whole entry, looked up): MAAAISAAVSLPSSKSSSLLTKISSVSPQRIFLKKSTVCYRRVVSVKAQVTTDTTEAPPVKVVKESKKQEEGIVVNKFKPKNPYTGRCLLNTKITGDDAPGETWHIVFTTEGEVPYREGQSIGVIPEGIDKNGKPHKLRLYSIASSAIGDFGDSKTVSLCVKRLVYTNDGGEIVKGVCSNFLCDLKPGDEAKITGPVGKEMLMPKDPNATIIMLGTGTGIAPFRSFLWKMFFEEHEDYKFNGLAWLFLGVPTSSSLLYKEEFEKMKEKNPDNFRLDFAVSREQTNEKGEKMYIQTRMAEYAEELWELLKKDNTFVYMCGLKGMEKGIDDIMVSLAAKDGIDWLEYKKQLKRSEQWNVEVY

[5] = molecular target: T2, LHCA4(TP)-DHFRHis (Arabidopsis thaliana | not stated); experiment: as above
T2 sequence (P27521 whole entry, looked up): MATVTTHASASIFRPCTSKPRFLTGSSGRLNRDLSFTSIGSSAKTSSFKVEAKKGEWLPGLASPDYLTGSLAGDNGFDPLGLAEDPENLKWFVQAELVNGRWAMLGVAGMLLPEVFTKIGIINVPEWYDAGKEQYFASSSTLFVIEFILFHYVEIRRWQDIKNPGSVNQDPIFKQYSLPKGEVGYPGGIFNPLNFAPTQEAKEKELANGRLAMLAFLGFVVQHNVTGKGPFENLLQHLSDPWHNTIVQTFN

Chain of atToc132 G-domain bait (Arabidopsis thaliana) (Q9SLF3 456-794): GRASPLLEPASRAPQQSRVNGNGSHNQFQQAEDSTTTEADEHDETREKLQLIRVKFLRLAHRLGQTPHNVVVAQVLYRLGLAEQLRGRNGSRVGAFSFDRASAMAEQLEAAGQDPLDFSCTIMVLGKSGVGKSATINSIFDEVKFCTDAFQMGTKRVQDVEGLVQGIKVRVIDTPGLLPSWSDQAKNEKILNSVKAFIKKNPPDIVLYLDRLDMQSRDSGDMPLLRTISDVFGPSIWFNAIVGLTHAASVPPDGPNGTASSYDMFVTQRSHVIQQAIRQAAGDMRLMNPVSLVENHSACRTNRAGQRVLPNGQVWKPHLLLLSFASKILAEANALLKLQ
Chain of atToc159 G-domain bait (Arabidopsis thaliana) (O81283 728-1092): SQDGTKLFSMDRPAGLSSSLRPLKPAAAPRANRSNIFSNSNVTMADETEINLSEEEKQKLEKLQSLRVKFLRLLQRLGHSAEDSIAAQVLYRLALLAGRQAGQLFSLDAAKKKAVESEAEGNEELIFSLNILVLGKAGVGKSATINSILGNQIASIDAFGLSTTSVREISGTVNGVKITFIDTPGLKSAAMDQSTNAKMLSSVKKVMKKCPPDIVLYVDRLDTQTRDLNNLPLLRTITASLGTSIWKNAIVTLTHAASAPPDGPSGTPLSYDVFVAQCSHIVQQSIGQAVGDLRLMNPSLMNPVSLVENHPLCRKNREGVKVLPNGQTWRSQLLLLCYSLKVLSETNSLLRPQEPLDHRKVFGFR
Chain of atToc132 A- plus G-domains bait (Arabidopsis thaliana) (Q9SLF3 1-794): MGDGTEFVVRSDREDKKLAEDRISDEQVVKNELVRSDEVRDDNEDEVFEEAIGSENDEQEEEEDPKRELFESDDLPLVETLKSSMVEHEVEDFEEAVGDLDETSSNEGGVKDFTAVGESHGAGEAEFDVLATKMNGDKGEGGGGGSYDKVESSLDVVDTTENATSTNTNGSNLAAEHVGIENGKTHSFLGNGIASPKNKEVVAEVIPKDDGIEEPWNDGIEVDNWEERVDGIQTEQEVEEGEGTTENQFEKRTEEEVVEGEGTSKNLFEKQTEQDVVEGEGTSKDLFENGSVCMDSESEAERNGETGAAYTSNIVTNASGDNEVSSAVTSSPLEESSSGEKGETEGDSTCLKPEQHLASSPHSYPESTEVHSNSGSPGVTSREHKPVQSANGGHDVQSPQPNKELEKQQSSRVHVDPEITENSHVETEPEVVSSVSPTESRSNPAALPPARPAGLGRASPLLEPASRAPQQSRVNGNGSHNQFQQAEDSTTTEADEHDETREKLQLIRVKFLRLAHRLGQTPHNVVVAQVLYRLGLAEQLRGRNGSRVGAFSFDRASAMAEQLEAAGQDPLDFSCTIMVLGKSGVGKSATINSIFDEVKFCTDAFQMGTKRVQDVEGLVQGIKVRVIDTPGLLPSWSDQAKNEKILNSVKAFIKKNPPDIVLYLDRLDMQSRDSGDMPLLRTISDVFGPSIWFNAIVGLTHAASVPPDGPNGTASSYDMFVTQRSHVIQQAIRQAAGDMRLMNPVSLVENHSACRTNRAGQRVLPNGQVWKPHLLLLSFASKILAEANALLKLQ
Chain of [35S]atToc159AG (O81283 1-1092): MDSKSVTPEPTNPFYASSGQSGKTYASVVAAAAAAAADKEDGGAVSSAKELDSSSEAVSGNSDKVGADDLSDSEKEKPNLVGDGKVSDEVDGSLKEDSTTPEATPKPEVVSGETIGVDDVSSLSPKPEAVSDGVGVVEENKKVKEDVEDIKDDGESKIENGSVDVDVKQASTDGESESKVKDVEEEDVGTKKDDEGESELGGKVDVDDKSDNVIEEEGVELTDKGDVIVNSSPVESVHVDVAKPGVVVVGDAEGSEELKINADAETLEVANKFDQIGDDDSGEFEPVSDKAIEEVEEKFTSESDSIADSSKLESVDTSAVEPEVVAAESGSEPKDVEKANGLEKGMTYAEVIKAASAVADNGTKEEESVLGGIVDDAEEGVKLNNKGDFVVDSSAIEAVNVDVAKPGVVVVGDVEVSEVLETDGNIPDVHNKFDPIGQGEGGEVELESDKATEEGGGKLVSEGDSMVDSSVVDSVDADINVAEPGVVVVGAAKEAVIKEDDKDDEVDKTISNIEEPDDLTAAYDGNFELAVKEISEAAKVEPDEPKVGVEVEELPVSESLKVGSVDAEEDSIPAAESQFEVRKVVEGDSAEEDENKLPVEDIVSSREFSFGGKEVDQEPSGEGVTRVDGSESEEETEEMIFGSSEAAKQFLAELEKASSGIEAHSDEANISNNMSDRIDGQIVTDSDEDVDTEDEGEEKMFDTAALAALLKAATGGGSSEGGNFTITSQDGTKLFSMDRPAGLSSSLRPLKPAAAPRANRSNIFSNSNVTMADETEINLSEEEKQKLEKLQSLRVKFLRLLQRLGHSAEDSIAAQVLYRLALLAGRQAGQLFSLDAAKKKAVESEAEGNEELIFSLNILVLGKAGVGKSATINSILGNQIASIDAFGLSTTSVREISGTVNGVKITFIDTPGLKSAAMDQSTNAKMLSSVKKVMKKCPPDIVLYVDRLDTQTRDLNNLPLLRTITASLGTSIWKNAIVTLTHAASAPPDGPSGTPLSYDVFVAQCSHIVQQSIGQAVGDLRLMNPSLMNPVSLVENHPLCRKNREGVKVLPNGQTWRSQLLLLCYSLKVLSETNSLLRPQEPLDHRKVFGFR
Chain of [35S]atToc132AG (Q9SLF3 1-794): as the sequence (Q9SLF3 1-794) above
Chain of ATP carrier protein 1 (P31167 whole entry): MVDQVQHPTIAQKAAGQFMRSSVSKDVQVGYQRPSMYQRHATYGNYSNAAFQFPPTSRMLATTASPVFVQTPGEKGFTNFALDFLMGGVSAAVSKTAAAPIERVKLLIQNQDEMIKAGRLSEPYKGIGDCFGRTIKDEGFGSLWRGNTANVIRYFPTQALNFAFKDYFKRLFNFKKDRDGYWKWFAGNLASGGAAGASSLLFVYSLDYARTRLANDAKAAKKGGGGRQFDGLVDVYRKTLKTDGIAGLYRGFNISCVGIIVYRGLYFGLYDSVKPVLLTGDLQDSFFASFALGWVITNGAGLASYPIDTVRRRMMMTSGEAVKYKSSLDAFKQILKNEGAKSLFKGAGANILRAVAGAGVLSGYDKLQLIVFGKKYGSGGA
Chain of THI1 -involved in thiamine synthesis (vitamin B) (Q38814 whole entry): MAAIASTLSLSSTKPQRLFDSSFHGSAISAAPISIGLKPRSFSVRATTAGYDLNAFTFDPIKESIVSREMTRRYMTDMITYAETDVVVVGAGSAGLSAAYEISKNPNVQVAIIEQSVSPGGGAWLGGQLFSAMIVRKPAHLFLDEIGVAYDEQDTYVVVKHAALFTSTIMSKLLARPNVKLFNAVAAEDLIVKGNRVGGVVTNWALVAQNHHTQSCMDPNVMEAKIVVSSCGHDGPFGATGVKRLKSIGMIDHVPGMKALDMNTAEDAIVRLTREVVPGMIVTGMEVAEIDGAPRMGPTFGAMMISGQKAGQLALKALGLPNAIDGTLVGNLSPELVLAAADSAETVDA
Chain of Photosystem I subunit D-1 (Q9S7H1 whole entry): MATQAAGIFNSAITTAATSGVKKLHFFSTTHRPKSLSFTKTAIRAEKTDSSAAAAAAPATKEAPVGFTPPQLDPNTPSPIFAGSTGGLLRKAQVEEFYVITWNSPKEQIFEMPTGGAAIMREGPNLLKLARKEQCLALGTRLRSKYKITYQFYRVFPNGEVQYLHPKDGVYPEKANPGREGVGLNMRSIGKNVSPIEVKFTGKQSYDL
Chain of Photosystem II Subunit P-1 (Q42029 whole entry): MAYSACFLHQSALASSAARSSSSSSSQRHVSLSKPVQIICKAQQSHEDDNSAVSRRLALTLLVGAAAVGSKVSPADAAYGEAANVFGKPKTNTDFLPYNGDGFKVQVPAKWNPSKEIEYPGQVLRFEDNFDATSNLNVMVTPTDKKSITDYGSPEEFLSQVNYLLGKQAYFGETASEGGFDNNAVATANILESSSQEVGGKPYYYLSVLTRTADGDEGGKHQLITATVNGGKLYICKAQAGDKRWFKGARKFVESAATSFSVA
Chain of Photosystem I subunit L (Q9SUI4 whole entry): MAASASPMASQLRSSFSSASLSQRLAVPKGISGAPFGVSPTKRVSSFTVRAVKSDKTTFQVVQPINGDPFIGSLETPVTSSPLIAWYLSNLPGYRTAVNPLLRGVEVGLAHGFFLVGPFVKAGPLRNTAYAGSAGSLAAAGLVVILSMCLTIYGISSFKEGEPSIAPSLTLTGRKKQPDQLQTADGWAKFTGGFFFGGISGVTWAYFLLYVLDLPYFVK
Chain of Photosystem I light harvesting complex gene 1 (Q01667 whole entry, one chain of several): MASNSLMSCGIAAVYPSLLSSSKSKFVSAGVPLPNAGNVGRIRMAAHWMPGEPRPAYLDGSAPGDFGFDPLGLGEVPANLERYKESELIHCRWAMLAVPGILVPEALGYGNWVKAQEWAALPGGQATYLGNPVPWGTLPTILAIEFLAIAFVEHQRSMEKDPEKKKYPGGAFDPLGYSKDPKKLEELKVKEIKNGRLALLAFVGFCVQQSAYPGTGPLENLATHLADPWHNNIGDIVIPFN

% increase in strength of interaction (β-Gal) with Toc132AG against Toc132G [2] [%] | % decrease in strength of interaction (β-Gal) with Toc159G against Toc132G [3] [%] | Substance | also measured
62.2 |  | Acyl Carrier Protein 2 (from UniProt P25701 1-136) (natural protein) | 
55.8 |  | Chaperonin 60 Beta (from UniProt P21240 1-600) (natural protein) | 
 | -5.52 | Light-Harvesting Chlorophyll B-Binding Protein 3 (from UniProt Q9S7M0 1-265) (natural protein) | 
 | -12.2 | Photosystem I subunit D-1 (from UniProt Q9S7H1 1-208) (natural protein) | 
 | -6.7 | Photosystem II Subunit P-1 (from UniProt Q42029 1-263) (natural protein) | 
 | -11.9 | Photosystem II Subunit S (from UniProt Q9XF91 1-265) (natural protein) | 
 | -29.6 | Plastocyanin 2 (from UniProt P42699 1-167) (natural protein) | 
98 |  | Rhomboid-Like Protein 11 (from UniProt Q84MB5 1-280) (natural protein) | 
60.6 |  | ThiaminC (from UniProt O82392 1-644) (natural protein) | relative β-Gal activity with 132G bait, % higher than with 159G bait [1]: 25.3%
93.8 |  | Thioredoxin M-Type 4 (from UniProt Q9SEU6 1-193) (natural protein) | relative β-Gal activity with 132G bait, % higher than with 159G bait [1]: 25%

The next lines start with the substance.

Substance | % increase in strength of interaction (β-Gal) with Toc132AG against Toc132G [2] [%] | % decrease in strength of interaction (β-Gal) with Toc159G against Toc132G [3] [%] | also measured
ATP carrier protein 1 (from UniProt P31167 1-381) (natural protein) |  |  | % increase in strength of interaction (β-Gal) with 132G against 159G [1]: 50.6%
ATPase, F0 complex, subunit B/B’ (from UniProt Q42139 1-219) (natural protein) |  |  | % increase in strength of interaction (β-Gal) with 132G against 159G [1]: 16.5%
Copper Chaperone (from UniProt O82089 1-121) (natural protein) | 285 |  | relative β-Gal activity with 132G bait, % lower than with 159G bait [1]: 27%
Glucose-6-phosphate transmembrane transporter (from UniProt Q9M5A9 1-388) (natural protein) | 55.2 |  | 
Light-harvesting chlorophyll-protein complex II subunit B1 (natural protein) |  |  | relative strength of interaction (β-Gal) with Toc132AG against Toc132G, % change [2]: -25.9%; % increase in strength of interaction (β-Gal) with Toc159G against Toc132G [3]: 26.4%
Lipid-transfer protein (natural protein) |  |  | % increase in strength of interaction (β-Gal) with 132G against 159G [1]: 38.1%
Membrane-associated progesterone binding protein 3 (from UniProt Q9M2Z4 1-233) (natural protein) | 115 |  | relative β-Gal activity with 132G bait, % higher than with 159G bait [1]: 77.5%
PGR5-Like A (from UniProt Q8H112 1-324) (natural protein) |  |  | % increase in strength of interaction (β-Gal) with Toc159G against Toc132G [3]: 13%
Photosystem I P Subunit (from UniProt Q8LCA1 1-174) (natural protein) |  | -28.2 | 
Photosystem I light harvesting complex gene 1 (from UniProt Q01667 1-241) (natural protein) |  |  | % increase in strength of interaction (β-Gal) with Toc159G against Toc132G [3]: 11.3%
Photosystem I reaction centre subunit IV (from UniProt Q9S831 1-143) (natural protein) |  | -27.1 | 
Photosystem I subunit E-2 (from UniProt Q9S714 1-145) (natural protein) |  |  | % reduction in strength of interaction (β-Gal) with Toc132AG against Toc132G [2]: 50%; % increase in strength of interaction (β-Gal) with Toc159G against Toc132G [3]: 14.4%
Photosystem I subunit L (from UniProt Q9SUI4 1-219) (natural protein) |  | -26.8 | 
Photosystem II 5 kD protein (natural protein) |  | -26.1 | 
Plastidial Dihydrolipoamide Acetyltransferase (from UniProt Q9C8P0 1-465) (natural protein) | 33.6 |  | 
THI1 -involved in thiamine synthesis (vitamin B) (from UniProt Q38814 1-349) (natural protein) |  |  | % increase in strength of interaction (β-Gal) with 132G against 159G [1]: 52%
[35S]atToc132AG (from UniProt Q9SLF3 1-794) (domain or fragment) |  |  | percent bound at 800 pmol FNR1(TP)-DHFR [4]: 8.7%; percent bound at 800 pmol LHCA4(TP)-DHFR [5]: 15%
[35S]atToc159AG (from UniProt O81283 1-1092) (domain or fragment) |  |  | percent bound at 800 pmol FNR1(TP)-DHFR [4]: 51.9%; percent bound at 800 pmol LHCA4(TP)-DHFR [5]: 38.2%

Reference: publication PMC3988174
